T1: PD-L2 (human) (human, UniProt Q9BQ51 20-219, limits assumed)
T1 construct: also called PD-L1 family members
T1 sequence (looked up): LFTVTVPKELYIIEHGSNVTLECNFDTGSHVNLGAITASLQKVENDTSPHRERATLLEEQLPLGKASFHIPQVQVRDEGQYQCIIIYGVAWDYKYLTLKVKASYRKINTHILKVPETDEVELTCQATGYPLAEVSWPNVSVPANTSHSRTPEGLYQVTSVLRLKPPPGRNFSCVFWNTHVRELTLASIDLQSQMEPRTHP

T2: B7H4 (human) (human, UniProt Q7Z7D3 25-258, limits assumed)
T2 construct: also called PD-L1 family members
T2 sequence (looked up): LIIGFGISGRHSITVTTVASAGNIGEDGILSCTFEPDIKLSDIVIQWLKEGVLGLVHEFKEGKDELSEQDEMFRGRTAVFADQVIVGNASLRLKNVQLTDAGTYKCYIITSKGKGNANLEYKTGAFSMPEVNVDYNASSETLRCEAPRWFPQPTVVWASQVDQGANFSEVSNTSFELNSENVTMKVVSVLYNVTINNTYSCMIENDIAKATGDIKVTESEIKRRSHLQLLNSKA

T3: B7H3 (human) (human, UniProt Q5ZPR3 29-461, limits assumed)
T3 construct: also called PD-L1 family members
T3 sequence (looked up): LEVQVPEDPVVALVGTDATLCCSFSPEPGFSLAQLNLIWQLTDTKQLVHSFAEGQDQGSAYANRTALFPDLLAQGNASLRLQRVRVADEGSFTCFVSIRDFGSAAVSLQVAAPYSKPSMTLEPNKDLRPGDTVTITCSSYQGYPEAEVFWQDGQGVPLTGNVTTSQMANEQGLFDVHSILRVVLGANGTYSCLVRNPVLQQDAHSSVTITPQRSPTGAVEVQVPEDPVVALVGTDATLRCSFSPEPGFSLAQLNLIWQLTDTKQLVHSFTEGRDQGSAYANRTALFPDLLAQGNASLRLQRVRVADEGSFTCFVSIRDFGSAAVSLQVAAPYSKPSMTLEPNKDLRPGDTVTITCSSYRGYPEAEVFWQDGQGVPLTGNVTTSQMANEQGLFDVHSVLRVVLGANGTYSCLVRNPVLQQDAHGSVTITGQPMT

B1: PD-L1 Nb-Fc protein (nanobody before humanization fused to IgG1 Fc) (Fc fusion)
chain: QVQLQESGGGSVQAGGSLRLSCQASAYTISRNSMGWFRQAPGKQREGVAAIESDGSTSYSDSVKGRFTISLGNAKNTLYLEMNSLKPEDTAMYYCAAPKVGLGPRTALGHLAFMTLPALNYWGQGTQVTVSS
notes: also called PD-L1 nanobodies; nanobodies before humanization; not shown: IgG1 Fc encoded by the pFUSE-IgG1 vector (Invivogen)
B2: humanized PD-L1 nanobody with Fc tag (humanized Nb-Fc) (Fc fusion)
chain: QVQLQESGGGLVQPGGSLRLSCAASAYTISRNSMGWFRQAPGKGLEGVAAIESDGSTSYSDSVKGRFTISLDNSKNTLYLEMNSLRAEDTAVYYCAAPKVGLGPRTALGHLAFMTLPALNYWGQGTLVTVSS
notes: also called humanized PD-L1 nanobodies; humanized nanobodies; not shown: IgG1 Fc encoded by the pFUSE-IgG1 vector (Invivogen)

What was measured:
[1] = target: T1, PD-L2 (human); assay: ELISA, antigen coated at 0.5 µg per well, biotinylated nanobody, streptavidin-HRP
Method: (§1) (2) The antigen proteins PD-L1 (human), PD-L1 (rat), PD-L1 (monkey), PD-L2 (human), B7H4 (human), B7H3 (human) were coated: 0.5 μg per well (5 μg/mL, 100 μL), IgG1 was coated as a control, left overnight at 4° C.;
(§2) (4) Each biotinylated nanobodies were diluted to 10 μg/mL, and 100 μL of each was incubated in each well and allowed to react at RT for 1 hour.
(§3) (5) The unbound nanobodies were washed with PBST, 100 μL of streptavidin-HRP (1:1000 dilution) was added, and the resultant was let stand for 1 hour at room temperature.

[2] = target: T2, B7H4 (human); assay: as above
Method: as §1, §2, §3

[3] = target: T3, B7H3 (human); assay: as above
Method: as §1, §2, §3

[4] = target: T4, PD-L1 (human) antigen protein (human, UniProt Q9NZQ7 19-238, limits assumed); assay: SPR, BiaCore T200, antigen immobilized on CM-5 chip, nanobody in five concentrations
T4 construct: also called human PD-L1; immobile phase antigens
Method: BiaCore T200 was used for detection. (1) Immobilization: The immobile phase antigens were immobilized on the surface of a CM-5 sensor chip using a carboxy-amino reaction;
(2) Binding: The nanobodies were diluted with HBS buffer to an appropriate concentration (five concentration gradients) to observe the antigen-nanobody binding process;
(4) Analysis of the experimental results.

T4 sequence (Q9NZQ7 19-238 limits assumed): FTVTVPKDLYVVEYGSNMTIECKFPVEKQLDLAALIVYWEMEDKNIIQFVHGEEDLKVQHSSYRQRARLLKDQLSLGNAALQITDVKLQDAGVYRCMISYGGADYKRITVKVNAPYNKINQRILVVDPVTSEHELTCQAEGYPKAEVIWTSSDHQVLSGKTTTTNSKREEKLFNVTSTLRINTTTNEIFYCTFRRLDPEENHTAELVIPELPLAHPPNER

Binder	binding result [1]	binding result [2]	binding result [3]	Kd [4] [nM]
B1	no binding (tested: 10 µg/mL)	no binding (tested: 10 µg/mL)	no binding (tested: 10 µg/mL)	2.34
B2	no binding (tested: 10 µg/mL)	no binding (tested: 10 µg/mL)	no binding (tested: 10 µg/mL)	2.26
